Measurements reported in the RNAGym collection of RNA variant scans (doi:10.7554/elife.90254).

B1: OR4K15 (parent)
chain: GUUAACGGUCAUAGGCCAUGGAAACUAGGAGCACCAUUUCGCUGCCAGUGAAGAAAUGAACAAAGAAAAUCUGGGCCAGGCAGGCAUCAAAAGAAAUAGUCUUGCGCUCAACCAGAAAGUCUGUAAUCAUUUUAAGGGUA

Variants of: B1
Test: self-cleavage, relative activity (ratio to wild type); higher = more cleavage; in vitro, sequencing; the parent is a self-cleaving ribozyme

Variant | self-cleavage
C77A A78G | 0.53
C101A A118G | 0.08
U12C A13G | 1.16
U130A U139C | 0.78
A30G A60U | 0.79
A68G A90U | 1.58
G41A A54G | 1.09
U2C G53A | 1.18
A11U A86G | 1.35
A56G A117G | 1.3
A110G A140G | 0.15
A27G A64G | 1.27
U3C A78U | 0.51
A118G U133C | 1.23
G41A A66G | 1.74
A95U A118G | 1.41
C16G U127A | 2.18
A18U G104A | 0.05
A51G A111G | 0.03
A82U U122G | 0.28
A90G U130C | 0.87
U3C A111G | 0.03
A78G A140U | 0.36
A18U | 1.11

Variant | self-cleavage
U57A A62G | 1.13
A63G G99U | 1.14
A51G A78G | 0.2
G93U | 1.83
A69G A78C | 0.36
A114U A125G | 0
U19A A118G | 0.88
A134G A135G | 1.25
A27G U39C | 1.14
A86G G137A | 1.83
U39A A68C | 1.75
A30U U49C | 1.48
U72G A96G | 0.07
A11U A111G | 0.06
G29C U127C | 0.39
A51U | 1.5
C16G U49C | 0.92
A66U A82U | 0.24
U12C A36G | 1.44
A78G G80A | 0.13
U72A A78U | 0.15
U49A U139C | 1.97
U2A U57C | 0.92
A66G U97C | 1.98

Variant | self-cleavage
U9A A118G | 0.9
A54U A69G | 0.53
U19C U108C | 0.02
C16A A55G | 0.37
G80A A114U | 0.05
U39C A64U | 1.77
U108C U124C | 0
U108C U130A | 0
G75U U133A | 0.15
U26A A69G | 1.5
A52U A91G | 1.13
A11G A91G | 0.73
U43C U127C | 0.89
G14A A117G | 1.22
U100C A129G | 2.22
A24U U26A | 1.57
U103C A111U | 0.1
A33G A86U | 0.87
U3G | 1.07
A68G U70C | 0.51
A69G U133C | 1.33
U87C A90C | 0.98
U9A G80U | 0.2
G73A U108C | 0.01

Variant | self-cleavage
U39A A69G | 1.5
A54G A62G | 0.92
U38C A110G | 0.17
G15C A67G | 1.63
U19A A63G | 1.59
A33G A117G | 0.7
G21A U70C | 1.39
U102C U127C | 1.56
A63U A69G | 0.49
A30G A82G | 0.6
A91G U127A | 2.67
A86C U127C | 0.83
G50A G104A | 0.1
A30C U108C | 0
A36U U39C | 1.03
A27G U49A | 0.93
G31U A36G | 2.23
C40A A69G | 1.65
A69G A86G | 1.24
A89G A90G | 0.71
A23G A96U | 1.17
A63U A89C | 1.22
C113G U131C | 0
A86G A118U | 0.52

Variant | self-cleavage
C32A | 1.2
G83A C109U | 0.71
U38C C40A | 1.48
U87A A94G | 1.64
A52C G75U | 0.33
A18G U38C | 0.46
A5G A118C | 1
A95G A98G | 1.49
U70A U72C | 0.22
A11U A118U | 0.51
U43C G93A | 2.44
C10U U108C | 0.06
G8A U49C | 2.37
A66G A91G | 1.04
G74C U127C | 0.13
A55G C85U | 1.27
U43C C107U | 0.02
A4G A89G | 1.34
U87A A125G | 0.68
A27C A116U | 0.23
A54G U130C | 0.76
C71U A95U | 0.5
A82G A110G | 0.07
U87C A95C | 0.32

Variant | self-cleavage
A94U U97G | 1.52
A18G A91G | 1.41
G50A G138A | 1.51
A118C U132C | 0.57
A5G U72C | 0.41
G20A A92G | 2.46
C42U | 1.44
A33G U132C | 0.83
A33U A47U | 0.84
A89C G136A | 1.27
A54G A116G | 0.75
G29A U87A | 1.79
U57C A114C | 0.04
A22U U72A | 0.21
A54G U132A | 1.73
A13G A126G | 1.04
U57C A59G | 0.57
G80A U132C | 0.08
A60U U127C | 0.92
A62U U102C | 1.91
U19A U127C | 0.92
G84A A92U | 2.15
U57C U124C | 0.59
A24U U43A | 1.68

Variant | self-cleavage
A78C U122C | 0.1
A90G A117U | 1.07
G7U C77U | 1.9
U49G A118G | 1.14
C25U C109U | 0.48
U87C G138A | 1.2
U87A A118G | 1.26
A27G A92U | 1.07
U38C A98G | 0.96
C32U | 1.28
U87C A117G | 0.7
A4G A24C | 1.03
A11G U87A | 1.05
U131C A135U | 0.87
C45A A129G | 0.87
C25U U57C | 1.42
U108C U122A | 0.01
A30U G93A | 1.63
A86G U102G | 0.39
C40A G65A | 1
A22G A114U | 0.08
C113A A140G | 0
C71U U130C | 0.13
A96G U102C | 2.33

Variant | self-cleavage
A60G G80U | 0.09
U2A A134G | 1.65
G31A A52U | 1.32
A36G U131C | 1.59
A78C U102C | 0.42
C34U A54G | 1.6
A51U A52G | 0.93
U100C A117U | 1.45
G1A A13G | 1.29
G20A A66G | 1.21
A47U A69G | 0.73
A36G U49A | 1.26
A5U U49A | 1.79
U19C C113U | 0.08
A11G U38A | 0.86
U39G A64G | 1.12
A54G A55C | 1.94
U2C U127A | 2.05
G79C A116G | 0.03
A36G A54G | 0.96
A114G A129G | 0.07
A82U A117C | 0.04
G41A U124C | 1.02
A59G G75A | 0.22

Variant | self-cleavage
U122C A135U | 1.06
G21A A98U | 2.32
U9G A96G | 1.46
A68G G73U | 0.07
U97C A114U | 0.1
A33C A126G | 1.8
U39A A86C | 1.21
A114G U130C | 0.38
C42U A116G | 0.68
A54G A117U | 0.91
A54G A89G | 1.55
G41A A114G | 0.75
U37C C61A | 0.78
U2C A78G | 0.21
A11U U87A | 1.75
U72C A134G | 0.16
U120C U130A | 0.71
C42G A111G | 0
C25A U122C | 0.72
A47G A54G | 1.22
U108C C112U | 0.01
U19A U133C | 1.73
U9C A60G | 1.41
A23G A86G | 0.99

Variant | self-cleavage
A18U A96U | 1.88
G79C U97A | 0.05
U57C U124G | 0.94
A23G A110G | 0.11
G44A A54G | 1.57
A86C A114G | 0.24
A68G G106A | 0.02
U72A A135U | 0.14
A13G G53A | 1.11
U19C A86U | 1.8
U70A A78U | 0.43
A90G A110G | 0.1
U37C A111U | 0.15
U122C U133C | 2.05
A4U U72A | 0.28
U87C U102G | 0.27
U38C A60C | 2.1
A5U A55U | 1.15
A13G A98U | 1.29
A5G A67G | 0.89
U19C U26C | 1.24
A96G U139C | 1.42
A110G U124A | 0.09
G28U A111U | 0.3

Variant | self-cleavage
A54G A116U | 0.27
A51G A129G | 1.11
A5G G21A | 1.23
U108C U131C | 0.01
G1A | 1.55
U9A U108A | 0
C34U A60G | 1.29
U70C U100A | 0.18
A30C | 1.6
U43C U120C | 0.46
U37C G136U | 1.97
A63U A68G | 0.87
A22U U120A | 1.95
A51G U120G | 2.37
A116C U131C | 0
A63U G99U | 1.03
U19A A117G | 1.57
A24G A134G | 0.94
U3G A66G | 1.01
A47G A125G | 0.28
U19C A96C | 0.69
A56C A59G | 1.51
A55U U87C | 1.64
U39C A62G | 0.75

Variant | self-cleavage
G1U A52G | 1.83
U43C G138A | 2.16
U122C G123A | 1.6
U37C U87A | 1.49
A23G G50A | 1.9
A18C U19C | 1.5
G21A A140G | 1.48
C25U U127C | 0.57
A91G A116C | 0.04
U19A U131G | 2.03
G53U A69G | 0.57
U124C A125G | 1.32
U49C A59U | 1.24
C45A U127C | 0.26
U19C A92G | 1.53
A96U U139C | 1.15
U39A A96U | 1.71
U97C U131C | 0.72
U12A A60G | 1.36
U9C A91U | 1.49
A22G U49C | 0.55
U9A G41A | 1.34
A63G A68C | 2.21
G7A U37C | 2.58

Variant | self-cleavage
U9C A18U | 1.36
A5U A91G | 0.86
A13U G79A | 0.19
U87A A110G | 0.15
U26C A90G | 1.11
A82G A118C | 0.28
A110U U122C | 0.92
C76A A96G | 0.19
U38C U132A | 1.77
A98U A118U | 1.62
A30G A117C | 0.61
A27U A91G | 1.19
A52U U124C | 0.48
A68G C71A | 0.6
A52G A60C | 0.73
A47G A52G | 0.87
A89C U139C | 1.52
A24U A78C | 0.29
U3A A68G | 2.27
G58U A64G | 1.2
A51C A67G | 0.66
A22C A94U | 2.06
U103C A110U | 0.79
A47G A60G | 0.74

Variant | self-cleavage
A11C U37C | 0.79
A52G A140U | 1.15
A66U A82G | 0.92
U26C A56G | 1.43
A18C A22U | 1.71
G79A A129C | 0.05
U19C A118C | 1.15
G31U A60G | 1.37
U87A A110C | 0.25
A27G A54U | 1.03
A27G U120C | 0.68
U12A U49C | 1.59
A27G G79A | 0.15
A36U U120A | 2.08
U70G | 0.88
A11G A118U | 0.2
A23G U131C | 0.45
A66G A129U | 1.47
A98U A110G | 0.17
A66U A126G | 1.05
U49A A86G | 1.19
A22C U127C | 1.48
